Measured values as given in patent publication US20230265183A1 (MABWELL SHANGHAI BIOSCIENCE, published 2023).
Where two headings read alike, the source gives them in different places.

T1: His-tagged human NECTIN4 (human, UniProt Q96NY8 32-349)
T1 construct: Antigen of the BIAcore assay; also called antigen; recombinant NECTIN4 protein; not shown: His tag
T1 sequence: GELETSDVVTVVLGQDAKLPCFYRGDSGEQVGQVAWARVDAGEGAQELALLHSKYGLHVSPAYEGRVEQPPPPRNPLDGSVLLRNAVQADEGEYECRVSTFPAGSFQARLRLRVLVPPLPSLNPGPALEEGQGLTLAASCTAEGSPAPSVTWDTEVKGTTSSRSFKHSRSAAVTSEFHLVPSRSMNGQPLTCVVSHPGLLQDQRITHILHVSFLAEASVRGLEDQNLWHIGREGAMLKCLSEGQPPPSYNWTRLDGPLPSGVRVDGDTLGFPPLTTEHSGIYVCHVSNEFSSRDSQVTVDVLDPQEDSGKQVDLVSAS

T2: human Nectin-4 (human, UniProt Q96NY8 32-510)
T2 construct: whole, on cells; Cell-surface target of the FACS, endocytosis and proliferation assays (CHO-huNectin4 S8 cells, BT474 cells); the assay field says which cells; also called huNectin4; PVRL4
T2 sequence (looked up): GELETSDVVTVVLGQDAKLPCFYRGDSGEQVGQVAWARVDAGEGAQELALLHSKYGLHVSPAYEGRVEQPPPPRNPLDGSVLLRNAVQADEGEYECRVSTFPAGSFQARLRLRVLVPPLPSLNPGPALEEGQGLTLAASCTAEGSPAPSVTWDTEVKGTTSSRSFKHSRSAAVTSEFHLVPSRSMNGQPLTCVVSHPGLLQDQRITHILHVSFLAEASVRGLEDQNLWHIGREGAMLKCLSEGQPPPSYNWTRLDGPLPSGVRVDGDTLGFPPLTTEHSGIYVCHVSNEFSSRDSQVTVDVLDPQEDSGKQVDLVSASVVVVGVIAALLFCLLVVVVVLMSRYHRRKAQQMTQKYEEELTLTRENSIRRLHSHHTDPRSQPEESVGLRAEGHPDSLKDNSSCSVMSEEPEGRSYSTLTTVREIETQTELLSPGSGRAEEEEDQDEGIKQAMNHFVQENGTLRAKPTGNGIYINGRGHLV

T3: Cyno Nectin4 (Cyno, UniProt Q96NY8 32-510 (human entry))
T3 construct: Expressed on HEK293 cells (HEK-cynoNectin4)
T3 chain: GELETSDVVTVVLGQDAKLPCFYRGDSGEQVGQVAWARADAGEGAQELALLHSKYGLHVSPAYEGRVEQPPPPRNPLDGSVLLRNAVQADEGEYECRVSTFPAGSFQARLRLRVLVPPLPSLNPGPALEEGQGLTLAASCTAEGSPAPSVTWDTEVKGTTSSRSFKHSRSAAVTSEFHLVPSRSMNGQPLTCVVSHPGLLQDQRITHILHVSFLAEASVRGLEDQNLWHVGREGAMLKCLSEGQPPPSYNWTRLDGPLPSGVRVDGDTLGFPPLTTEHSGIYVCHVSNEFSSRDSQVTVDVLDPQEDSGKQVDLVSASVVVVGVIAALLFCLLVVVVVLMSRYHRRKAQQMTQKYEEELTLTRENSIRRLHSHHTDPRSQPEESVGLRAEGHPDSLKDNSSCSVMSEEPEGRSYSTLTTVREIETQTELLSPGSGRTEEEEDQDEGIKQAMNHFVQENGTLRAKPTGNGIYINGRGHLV

T4: murine Nectin4 (NP_082169) (murine, UniProt Q8R007 31-508)
T4 construct: whole, on cells; also called muNectin4
T4 sequence (looked up): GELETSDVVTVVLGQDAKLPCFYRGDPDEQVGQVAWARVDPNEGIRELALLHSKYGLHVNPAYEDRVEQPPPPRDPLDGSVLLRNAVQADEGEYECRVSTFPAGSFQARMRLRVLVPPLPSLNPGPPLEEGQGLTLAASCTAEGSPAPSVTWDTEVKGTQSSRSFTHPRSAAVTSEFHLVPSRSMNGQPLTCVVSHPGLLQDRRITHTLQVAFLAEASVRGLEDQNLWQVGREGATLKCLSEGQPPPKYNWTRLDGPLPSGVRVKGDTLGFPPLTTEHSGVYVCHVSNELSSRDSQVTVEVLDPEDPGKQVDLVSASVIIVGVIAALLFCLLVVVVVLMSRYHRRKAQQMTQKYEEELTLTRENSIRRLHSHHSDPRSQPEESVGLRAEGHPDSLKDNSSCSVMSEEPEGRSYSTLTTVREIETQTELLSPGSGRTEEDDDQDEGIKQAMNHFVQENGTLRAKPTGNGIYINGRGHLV


What was measured:
[1] = target: T1, His-tagged human NECTIN4; test: ELISA, antibody without cyno serum, plate coated with 0.2 µg/ml antigen, HRP goat anti-human IgG, OD450. The sheet does not say which of the two plates of Example 13 is drawn
[2] = target: T2, human Nectin-4; test: FACS on BT474 cells
Description: (§1) The solutions of different concentrations were added to 384-well plates, 10 µl per well.
(§2) BT474 cells (breast cancer cells) expressing Nectin-4 on the cell surface were collected by centrifugation at 100 g at room temperature for 5 minutes, and then the cells were washed with PBS containing 0.5% BSA once and were centrifuged at 100 g at room temperature for 5 minutes. […] After incubation at 4° C. for 1 hour, fluorescently labeled goat anti-human IgG secondary antibody was added. After continued incubation at 4° C. for 1 hour, mean fluorescence readings of the cell populations were analyzed by a flow cytometer.
(§3) The experiment results of the binding of engineered humanized molecules of the present disclosure to BT474 cells by FACS assay are shown in panels 3B and 3C in FIG. 3 and Tables 6 and 7.

[3] = target: T3, Cyno Nectin4; test: FACS on HEK-cynoNectin4 cells
[4] = target: T2, human Nectin-4; test: cell-based or functional assay
[5] = target: T2, human Nectin-4; test: FACS on BT474 cells; remark: listed apart in the source
Description: as §1, §2

[6] = target: T2, human Nectin-4; test: FACS on BT474 cells; remark: listed apart in the source
Description: as §1, §2, §3

[7] = target: T2, human Nectin-4; test: FACS on BT474 cells; remark: listed apart in the source
Description: as §1, §2

[8] = target: T4, murine Nectin4 (NP_082169); test: FACS on HEK-muNectin4 cells
[9] = target: T1, His-tagged human NECTIN4; test: ELISA, antibody without cyno serum, plate coated with 0.2 µg/ml antigen, HRP goat anti-human IgG, OD450. The sheet does not say which of the two plates of Example 13 is drawn; remark: listed apart in the source

| EC50 (read off the curve) [1] | EC50 [2] | EC50 [3] | EC50 (ng/ml), inhibition of proliferation of BT474 cells [4] | EC50 [5] | EC50 [6] | EC50 [7] | EC50 [8] | EC50 (read off the curve) [9] | Binder | Percentage of cell killing at the highest concentration [4] |
| --- | --- | --- | --- | --- | --- | --- | --- | --- | --- | --- |
| ~0.1 µg/mL | 0.0503 µg/mL | 0.948 to 2.07 µg/mL | 3.37 ng/mL | 29.6 µg/mL | 57.2 µg/mL | 98.8 µg/mL | 2.43 µg/mL | – | Enfortumab (antibody, human IgG1, kappa, V domains shown, also called control antibody Enfortumab) VH: EVQLVESGGGLVQPGGSLRLSCAASGFTFSSYNMNWVRQAPGKGLEWVSYISSSSSTIYYADSVKGRFTISRDNAKNSLSLQMNSLRDEDTAVYYCARAYYYGMDVWGQGTTVTVSS VL: DIQMTQSPSSVSASVGDRVTITCRASQGISGWLAWYQQKPGKAPKFLIYAASTLQSGVPSRFSGSGSGTDFTLTISSLQPEDFATYYCQQANSFPPTFGGGTKVEIKR | 43.3% |
| – | 0.0528 µg/mL | 2.42 to 4.97 µg/mL | – | – | – | – | 8.74 µg/mL | ~0.1 µg/mL | 42D20 hz10 (antibody, V domains shown, Humanized) VH: QVQLQESGPGLVKPSETLSLTCTVSGFSLIDYGVSWIRQPPGKGLEWIGVIWGDGKIYYNSVLKSRVTISKDNSKSQVSLKLSSVTAADTAVYYCAKQGGLLFYAMDYWGQGTLVTVSS VL: DIVMTQSPDSLAVSLGERATINCKSSQSLLNSYSQKNYLAWYQQKPGQPPKLLIYFASTRESGVPDRFSGSGSGTDFTLTISSLQAEDVAVYYCQQHYNTPFTFGAGTKLELKR | – |
